± gives the standard error. For some of these results: This sample holds only a part of the variants without activity.
B1: glmS ribozyme (parent)
chain: AUAAAAGCGCCAGAACUACAGAAAUGUAGUUGACGAGGAGGAGGUUUAUCGAAUUUUCGGCGGAUGCCUCCAAA

Assays:
Details in all cases: with glucosamine-6-phosphate
glucosamine-6-phosphate [1] = variants of: B1; experiment: kcat; higher = faster cleavage; RNA array
Method in brief: (§1)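 Glucosamine-6-phosphate, from 40 μM to 10 mM in HEPES/KCl/Mg(OAc)2 buffer, was flowed over sequenced MiSeq chips carrying barcoded ribozyme variants transcribed in situ by E. coli RNA polymerase. A hybridised Cy3 probe tracked the variants at 37 °C as tiles were imaged over ~14 h. kobs, kcat and KM were obtained by fitting normalised per-tile medians to exponential decays and then applying weighted Michaelis–Menten fits across concentrations.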

glucosamine-6-phosphate [2] = variants of: B1; experiment: KM; higher = weaker cofactor use; RNA array
Method in brief: as §1

glucosamine-6-phosphate [3] = variants of: B1; experiment: self-cleavage kobs at 40 uM GlcN6P; higher = faster cleavage; RNA array
Method in brief: as §1

glucosamine-6-phosphate [4] = variants of: B1; experiment: self-cleavage kobs at 2500 uM GlcN6P; higher = faster cleavage; RNA array
Method in brief: as §1

glucosamine-6-phosphate [5] = variants of: B1; experiment: self-cleavage kobs at 10000 uM GlcN6P; higher = faster cleavage; RNA array
Method in brief: as §1

glucosamine-6-phosphate [6] = variants of: B1; experiment: self-cleavage kobs at 640 uM GlcN6P; higher = faster cleavage; RNA array
Method in brief: as §1

glucosamine-6-phosphate [7] = variants of: B1; experiment: self-cleavage kobs at 160 uM GlcN6P; higher = faster cleavage; RNA array
Method in brief: as §1

A39G C58U was tested, and the kcat (glucosamine-6-phosphate [1]) was 7.06e-05 ± 1.1e-06 s⁻¹, the KM (glucosamine-6-phosphate [2]) was 2990 ± 150 µM and the “self-cleavage kobs at 40 uM GlcN6P” value (glucosamine-6-phosphate [3]) was less than 1e-05 s⁻¹. The “self-cleavage kobs at 2500 uM GlcN6P” value (glucosamine-6-phosphate [4]) was 3.24e-05 ± 1.1e-05 s⁻¹ and the “self-cleavage kobs at 10000 uM GlcN6P” value (glucosamine-6-phosphate [5]) was 5.43e-05 ± 8.5e-06 s⁻¹.

A39G C58G was tested, and the kcat (glucosamine-6-phosphate [1]) was 0.000195 ± 2.9e-05 s⁻¹, the KM (glucosamine-6-phosphate [2]) was 3340 ± 1100 µM and the “self-cleavage kobs at 640 uM GlcN6P” value (glucosamine-6-phosphate [6]) was 3.89e-05 ± 1.2e-05 s⁻¹. For the same variant, the “self-cleavage kobs at 2500 uM GlcN6P” value (glucosamine-6-phosphate [4]) was 7.24e-05 ± 1.7e-05 s⁻¹ and the “self-cleavage kobs at 10000 uM GlcN6P” value (glucosamine-6-phosphate [5]) was 0.000151 ± 2.3e-05 s⁻¹.

G40U U49G was tested, and the kcat (glucosamine-6-phosphate [1]) was 8.53e-05 ± 3.1e-05 s⁻¹, the “self-cleavage kobs at 2500 uM GlcN6P” value (glucosamine-6-phosphate [4]) was 9.77e-05 ± 2e-05 s⁻¹ and the “self-cleavage kobs at 10000 uM GlcN6P” value (glucosamine-6-phosphate [5]) was 6.94e-05 ± 1.1e-05 s⁻¹.

For G40U C71G, the kcat (glucosamine-6-phosphate [1]) was 0.00552 ± 0.00087 s⁻¹, the KM (glucosamine-6-phosphate [2]) was 1200 ± 280 µM and the “self-cleavage kobs at 40 uM GlcN6P” value (glucosamine-6-phosphate [3]) was 0.000211 ± 2.1e-05 s⁻¹. For the same variant, the “self-cleavage kobs at 160 uM GlcN6P” value (glucosamine-6-phosphate [7]) was 0.000498 ± 8.3e-05 s⁻¹, the “self-cleavage kobs at 640 uM GlcN6P” value (glucosamine-6-phosphate [6]) was 0.00193 ± 0.00025 s⁻¹ and the “self-cleavage kobs at 2500 uM GlcN6P” value (glucosamine-6-phosphate [4]) was 0.00351 ± 0.00048 s⁻¹. The “self-cleavage kobs at 10000 uM GlcN6P” value (glucosamine-6-phosphate [5]) was 0.00519 ± 0.00058 s⁻¹.

With A39C G43U C68U the kcat (glucosamine-6-phosphate [1]) was 9.32e-05 ± 1.5e-05 s⁻¹, the KM (glucosamine-6-phosphate [2]) was 1780 ± 810 µM and the “self-cleavage kobs at 2500 uM GlcN6P” value (glucosamine-6-phosphate [4]) was 5.95e-05 ± 1.4e-05 s⁻¹. For the same variant, the “self-cleavage kobs at 10000 uM GlcN6P” value (glucosamine-6-phosphate [5]) was 7.63e-05 ± 1.8e-05 s⁻¹.

G40U C67U was tested, and the kcat (glucosamine-6-phosphate [1]) was 7.51e-05 ± 5.3e-06 s⁻¹, the KM (glucosamine-6-phosphate [2]) was 1470 ± 410 µM and the “self-cleavage kobs at 40 uM GlcN6P” value (glucosamine-6-phosphate [3]) was less than 1e-05 s⁻¹. The “self-cleavage kobs at 640 uM GlcN6P” value (glucosamine-6-phosphate [6]) was 2.67e-05 ± 8.3e-06 s⁻¹, the “self-cleavage kobs at 2500 uM GlcN6P” value (glucosamine-6-phosphate [4]) was 4.31e-05 ± 8.2e-06 s⁻¹ and the “self-cleavage kobs at 10000 uM GlcN6P” value (glucosamine-6-phosphate [5]) was 6.64e-05 ± 6e-06 s⁻¹.

In the case of G40A U56G, the kcat (glucosamine-6-phosphate [1]) is reported as 0.0035 ± 0.00093 s⁻¹, the KM (glucosamine-6-phosphate [2]) is reported as 2840 ± 950 µM and the “self-cleavage kobs at 40 uM GlcN6P” value (glucosamine-6-phosphate [3]) is reported as 6e-05 ± 1.3e-05 s⁻¹. The “self-cleavage kobs at 160 uM GlcN6P” value (glucosamine-6-phosphate [7]) was 0.000189 ± 3e-05 s⁻¹, the “self-cleavage kobs at 640 uM GlcN6P” value (glucosamine-6-phosphate [6]) was 0.000577 ± 7.7e-05 s⁻¹ and the “self-cleavage kobs at 2500 uM GlcN6P” value (glucosamine-6-phosphate [4]) was 0.00224 ± 0.00044 s⁻¹. The “self-cleavage kobs at 10000 uM GlcN6P” value (glucosamine-6-phosphate [5]) was 0.00256 ± 0.00054 s⁻¹.

In the case of A39U G41U, the kcat (glucosamine-6-phosphate [1]) is reported as 0.00058 ± 0.00011 s⁻¹, the KM (glucosamine-6-phosphate [2]) is reported as 1710 ± 530 µM and the “self-cleavage kobs at 160 uM GlcN6P” value (glucosamine-6-phosphate [7]) is reported as 6.52e-05 ± 1.2e-05 s⁻¹. The “self-cleavage kobs at 640 uM GlcN6P” value (glucosamine-6-phosphate [6]) was 0.000138 ± 1.7e-05 s⁻¹, the “self-cleavage kobs at 2500 uM GlcN6P” value (glucosamine-6-phosphate [4]) was 0.000402 ± 6.4e-05 s⁻¹ and the “self-cleavage kobs at 10000 uM GlcN6P” value (glucosamine-6-phosphate [5]) was 0.000489 ± 6.8e-05 s⁻¹.

With G41U A42C the kcat (glucosamine-6-phosphate [1]) was 1.89e-05 ± 1.4e-06 s⁻¹, the KM (glucosamine-6-phosphate [2]) was 2750 ± 590 µM and the “self-cleavage kobs at 40 uM GlcN6P” value (glucosamine-6-phosphate [3]) was less than 1e-05 s⁻¹. For the same variant, the “self-cleavage kobs at 160 uM GlcN6P” value (glucosamine-6-phosphate [7]) was less than 1e-05 s⁻¹.

With G41A U49G the kcat (glucosamine-6-phosphate [1]) was 3.79e-05 ± 6.4e-06 s⁻¹, the “self-cleavage kobs at 2500 uM GlcN6P” value (glucosamine-6-phosphate [4]) was 3.9e-05 ± 1e-05 s⁻¹ and the “self-cleavage kobs at 10000 uM GlcN6P” value (glucosamine-6-phosphate [5]) was 3.34e-05 ± 8.6e-06 s⁻¹.

With G40C U47C the kcat (glucosamine-6-phosphate [1]) was 0.000914 ± 0.0001 s⁻¹, the KM (glucosamine-6-phosphate [2]) was 2020 ± 360 µM and the “self-cleavage kobs at 160 uM GlcN6P” value (glucosamine-6-phosphate [7]) was 7.4e-05 ± 2e-05 s⁻¹. The “self-cleavage kobs at 640 uM GlcN6P” value (glucosamine-6-phosphate [6]) was 0.000201 ± 4.4e-05 s⁻¹, the “self-cleavage kobs at 2500 uM GlcN6P” value (glucosamine-6-phosphate [4]) was 0.000591 ± 0.00016 s⁻¹ and the “self-cleavage kobs at 10000 uM GlcN6P” value (glucosamine-6-phosphate [5]) was 0.000741 ± 0.00015 s⁻¹.

In the case of G40C U46G, the kcat (glucosamine-6-phosphate [1]) is reported as 0.000983 ± 6.7e-05 s⁻¹, the KM (glucosamine-6-phosphate [2]) is reported as 2350 ± 280 µM and the “self-cleavage kobs at 160 uM GlcN6P” value (glucosamine-6-phosphate [7]) is reported as 7.1e-05 ± 3.3e-05 s⁻¹. The “self-cleavage kobs at 640 uM GlcN6P” value (glucosamine-6-phosphate [6]) was 0.00021 ± 4.6e-05 s⁻¹, the “self-cleavage kobs at 2500 uM GlcN6P” value (glucosamine-6-phosphate [4]) was 0.000525 ± 0.00016 s⁻¹ and the “self-cleavage kobs at 10000 uM GlcN6P” value (glucosamine-6-phosphate [5]) was 0.000789 ± 0.00015 s⁻¹.

For A39G G43A, the kcat (glucosamine-6-phosphate [1]) was 0.0004 ± 8.6e-05 s⁻¹, the KM (glucosamine-6-phosphate [2]) was 5960 ± 2100 µM and the “self-cleavage kobs at 640 uM GlcN6P” value (glucosamine-6-phosphate [6]) was 5.25e-05 ± 1.8e-05 s⁻¹. The “self-cleavage kobs at 2500 uM GlcN6P” value (glucosamine-6-phosphate [4]) was 0.000109 ± 2.1e-05 s⁻¹ and the “self-cleavage kobs at 10000 uM GlcN6P” value (glucosamine-6-phosphate [5]) was 0.000259 ± 4.9e-05 s⁻¹.

With G41A G66U the kcat (glucosamine-6-phosphate [1]) was 8e-05 ± 4.8e-06 s⁻¹, the KM (glucosamine-6-phosphate [2]) was 2190 ± 390 µM and the “self-cleavage kobs at 640 uM GlcN6P” value (glucosamine-6-phosphate [6]) was 2.19e-05 ± 1e-05 s⁻¹. The “self-cleavage kobs at 2500 uM GlcN6P” value (glucosamine-6-phosphate [4]) was 4.07e-05 ± 7.8e-06 s⁻¹ and the “self-cleavage kobs at 10000 uM GlcN6P” value (glucosamine-6-phosphate [5]) was 6.65e-05 ± 8.4e-06 s⁻¹.

For G41A G66C, the kcat (glucosamine-6-phosphate [1]) was 3.76e-05 ± 1.2e-06 s⁻¹, the KM (glucosamine-6-phosphate [2]) was 1410 ± 200 µM and the “self-cleavage kobs at 2500 uM GlcN6P” value (glucosamine-6-phosphate [4]) was 2.49e-05 ± 1.2e-05 s⁻¹. The “self-cleavage kobs at 10000 uM GlcN6P” value (glucosamine-6-phosphate [5]) was 3.27e-05 ± 9.4e-06 s⁻¹.

Reference: the supplement of paper PMC7125110
